Patent US20240270821A1, “GIP/GLP1/GCG TRI-RECEPTOR AGONISTS AND USES THEREOF” (priority 2023, published 2024)
Where a chain is given by its changes, count along the chain named.

B1: Example 96 (peptide)
chain: YXQGTFTSDFSXXLDKKAQXQFIEYLLAGGPSSGAPPPEGS
modifications: synthetic construct; SITE 2: note = 2-Aminoisobutyric Acid; SITE 12: note = L-ornithine; SITE 13: note = alpha-methyl-leucine; SITE 17: note = Lysine is chemically modified through conjugation of the epsilon-amino group of the Lysine side chain with (2-[2-(2-Amino-ethoxy)-ethoxy]-acetyl)-(gamma-Glu)
B2: Example 1008 (peptide)
chain: YXQGTFTSDXSQXLDXKAQXAFIEYLIAGGPSSGEPPPSGSE
modifications: synthetic construct; SITE 2: note = 2-Aminoisobutyric Acid; SITE 10: note = 3-(4-Pyridyl)-L-alanine; SITE 13: note = alpha-methyl-leucine; SITE 16: note = L-ornithine; SITE 17: note = Lysine is chemically modified through conjugation of the epsilon-amino group of the Lysine side chain with (gamma-Gl)
B3: Example 1009 (peptide)
chain: B2 chain with Q12X, X16K, E35A
modifications: synthetic construct; SITE 2: note = 2-Aminoisobutyric Acid; SITE 10: note = 3-(4-Pyridyl)-L-alanine; SITE 12: note = L-ornithine; SITE 13: note = alpha-methyl-leucine; SITE 17: note = Lysine is chemically modified through conjugation of the epsilon-amino group of the Lysine side chain with (gamma-Gl)
B4: Example 1012 (peptide)
chain: B2 chain with Q12X, E35A, G40E
modifications: Aib, 4Pal, Orn, αMeL, Me4Pal; K (γGlu)2-C18 diacid; amide; synthetic construct; SITE 2: note = 2-Aminoisobutyric Acid; SITE 10: note = 3-(4-Pyridyl)-L-alanine; SITE 12: note = L-ornithine; SITE 13: note = alpha-methyl-leucine; SITE 16: note = L-ornithine; SITE 17: note = Lysine is chemically modified through conjugation of the epsilon-amino group of the Lys
B5: Example 1011 (peptide)
chain: B2 chain with Q12X, E35A
modifications: non-natural residues; Lys acylated C18 diacid; C-terminal amide; synthetic construct; SITE 2: note = 2-Aminoisobutyric Acid; SITE 10: note = 3-(4-Pyridyl)-L-alanine; SITE 12: note = L-ornithine; SITE 13: note = alpha-methyl-leucine; SITE 16: note = L-ornithine; SITE 17: note = Lysine is chemically modified through conjugation of the epsilon-amino group of the Lys
B6: Example 1010 (peptide)
chain: B2 chain with Q12X, X16K, E35A, G40E
modifications: not fully specified; synthetic construct; SITE 2: note = 2-Aminoisobutyric Acid; SITE 10: note = 3-(4-Pyridyl)-L-alanine; SITE 12: note = L-ornithine; SITE 13: note = alpha-methyl-leucine; SITE 17: note = Lysine is chemically modified through conjugation of the epsilon-amino group of the Lysine side chain with (gamma-Gl)
B7: Example 991 (peptide)
chain: YXQGTFTSDXSXXLDXKAQXAFIEXLIEXGPSSGEPPPSGS
modifications: Aib, 4Pal, Orn, Me4Pal, lipidated Lys, C-terminal amide; synthetic construct; SITE 2: note = 2-Aminoisobutyric Acid; SITE 10: note = 3-(4-Pyridyl)-L-alanine; SITE 12: note = L-ornithine; SITE 13: note = alpha-methyl-leucine; SITE 16: note = L-ornithine; SITE 17: note = Lysine is chemically modified through conjugation of the epsilon-amino group of the Lys
B8: Example 1007 (peptide)
chain: B7 chain with X12Q, X25Y, E28A, X29G
modifications: not fully specified; synthetic construct; SITE 2: note = 2-Aminoisobutyric Acid; SITE 10: note = 3-(4-Pyridyl)-L-alanine; SITE 13: note = alpha-methyl-leucine; SITE 16: note = L-ornithine; SITE 17: note = Lysine is chemically modified through conjugation of the epsilon-amino group of the Lysine side chain with (gamma-Gl)
B9: Example 992 (peptide)
chain: YXQGTFTSDXSXXLDXKAQXQFIEXLIAGGPSSGAPPPSGSEE
modifications: non-natural residues (Aib, 4Pal, Orn, Me4Pal, αMeY); lipidated Lys; C-amide; synthetic construct; SITE 2: note = 2-Aminoisobutyric Acid; SITE 10: note = 3-(4-Pyridyl)-L-alanine; SITE 12: note = L-ornithine; SITE 13: note = alpha-methyl-leucine; SITE 16: note = L-ornithine; SITE 17: note = Lysine is chemically modified through conjugation of the epsilon-amino group of the Lys
B10: Example 997 (peptide)
chain: B9 chain with Q21X, I27L
modifications: non-natural residues; lipidated Lys (γGlu)2-C18 diacid; C-term amide; synthetic construct; SITE 2: note = 2-Aminoisobutyric Acid; SITE 10: note = 3-(4-Pyridyl)-L-alanine; SITE 12: note = L-ornithine; SITE 13: note = alpha-methyl-leucine; SITE 16: note = L-ornithine; SITE 17: note = Lysine is chemically modified through conjugation of the epsilon-amino group of the Lys
B11: Example 994 (peptide)
chain: B9 chain with Q21X
modifications: Lys acylated with (γGlu)2-C18 diacid; non-natural residues; C-amide; synthetic construct; SITE 2: note = 2-Aminoisobutyric Acid; SITE 10: note = 3-(4-Pyridyl)-L-alanine; SITE 12: note = L-ornithine; SITE 13: note = alpha-methyl-leucine; SITE 16: note = L-ornithine; SITE 17: note = Lysine is chemically modified through conjugation of the epsilon-amino group of the Lys
B12: Example 996 (peptide)
chain: B9 chain with Q21E, I27L
modifications: acylated lysine (γ-Glu)2 C18 diacid; non-natural residues; C-terminal amide; synthetic construct; SITE 2: note = 2-Aminoisobutyric Acid; SITE 10: note = 3-(4-Pyridyl)-L-alanine; SITE 12: note = L-ornithine; SITE 13: note = alpha-methyl-leucine; SITE 16: note = L-ornithine; SITE 17: note = Lysine is chemically modified through conjugation of the epsilon-amino group of the Lys
B13: Example 993 (peptide)
chain: B9 chain with Q21E
modifications: non-natural residues; lipidated Lys (γGlu)2-C18 diacid; C-term amide; synthetic construct; SITE 2: note = 2-Aminoisobutyric Acid; SITE 10: note = 3-(4-Pyridyl)-L-alanine; SITE 12: note = L-ornithine; SITE 13: note = alpha-methyl-leucine; SITE 16: note = L-ornithine; SITE 17: note = Lysine is chemically modified through conjugation of the epsilon-amino group of the Lys
B14: Example 1006 (peptide)
chain: B9 chain with X12Q, X25Y, I27L
modifications: synthetic construct; SITE 2: note = 2-Aminoisobutyric Acid; SITE 10: note = 3-(4-Pyridyl)-L-alanine; SITE 13: note = alpha-methyl-leucine; SITE 16: note = L-ornithine; SITE 17: note = Lysine is chemically modified through conjugation of the epsilon-amino group of the Lysine side chain with (gamma-Gl)
B15: Example 1003 (peptide)
chain: B9 chain with Q21E, X25Y, I27L
modifications: (γGlu)2-C18 diacid on Lys; non-natural residues; amide; synthetic construct; SITE 2: note = 2-Aminoisobutyric Acid; SITE 10: note = 3-(4-Pyridyl)-L-alanine; SITE 12: note = L-ornithine; SITE 13: note = alpha-methyl-leucine; SITE 16: note = L-ornithine; SITE 17: note = Lysine is chemically modified through conjugation of the epsilon-amino group of the Lys
B16: Example 1002 (peptide)
chain: B9 chain with X25Y, I27L
modifications: non-natural residues; (γGlu)2-C18 diacid on Lys; C-terminal amide; synthetic construct; SITE 2: note = 2-Aminoisobutyric Acid; SITE 10: note = 3-(4-Pyridyl)-L-alanine; SITE 12: note = L-ornithine; SITE 13: note = alpha-methyl-leucine; SITE 16: note = L-ornithine; SITE 17: note = Lysine is chemically modified through conjugation of the epsilon-amino group of the Lys
B17: Example 1000 (peptide)
chain: B9 chain with X25Y
modifications: Lys acylated with (γGlu)2-C18 diacid; non-natural residues; C-amide; synthetic construct; SITE 2: note = 2-Aminoisobutyric Acid; SITE 10: note = 3-(4-Pyridyl)-L-alanine; SITE 12: note = L-ornithine; SITE 13: note = alpha-methyl-leucine; SITE 16: note = L-ornithine; SITE 17: note = Lysine is chemically modified through conjugation of the epsilon-amino group of the Lys
B18: Example 1004 (peptide)
chain: B9 chain with Q21X, X25Y, I27L
modifications: non-natural residues; C18 diacid-(γ-Glu)2 acyl on Lys; C-terminal amide; synthetic construct; SITE 2: note = 2-Aminoisobutyric Acid; SITE 10: note = 3-(4-Pyridyl)-L-alanine; SITE 12: note = L-ornithine; SITE 13: note = alpha-methyl-leucine; SITE 16: note = L-ornithine; SITE 17: note = Lysine is chemically modified through conjugation of the epsilon-amino group of the Lys
B19: Example 999 (peptide)
chain: B9 chain with X12Q, Q21E, I27L
modifications: Aib, 4Pal, αMeL, Orn, Me4Pal, αMeY; γGlu2-C18 diacid Lys; amide; synthetic construct; SITE 2: note = 2-Aminoisobutyric Acid; SITE 10: note = 3-(4-Pyridyl)-L-alanine; SITE 13: note = alpha-methyl-leucine; SITE 16: note = L-ornithine; SITE 17: note = Lysine is chemically modified through conjugation of the epsilon-amino group of the Lysine side chain with (gamma-Gl)
B20: Example 995 (peptide)
chain: B9 chain with I27L
modifications: non-natural residues, (γGlu)2-diacid acylated Lys, C-terminal amide; synthetic construct; SITE 2: note = 2-Aminoisobutyric Acid; SITE 10: note = 3-(4-Pyridyl)-L-alanine; SITE 12: note = L-ornithine; SITE 13: note = alpha-methyl-leucine; SITE 16: note = L-ornithine; SITE 17: note = Lysine is chemically modified through conjugation of the epsilon-amino group of the Lys
B21: Example 1005 (peptide)
chain: B9 chain with X12Q, X25Y
modifications: not fully specified; synthetic construct; SITE 2: note = 2-Aminoisobutyric Acid; SITE 10: note = 3-(4-Pyridyl)-L-alanine; SITE 13: note = alpha-methyl-leucine; SITE 16: note = L-ornithine; SITE 17: note = Lysine is chemically modified through conjugation of the epsilon-amino group of the Lysine side chain with (gamma-Gl)
B22: Example 998 (peptide)
chain: B9 chain with X12Q, I27L
modifications: non-natural residues, acylated Lys, C-terminal amide; synthetic construct; SITE 2: note = 2-Aminoisobutyric Acid; SITE 10: note = 3-(4-Pyridyl)-L-alanine; SITE 13: note = alpha-methyl-leucine; SITE 16: note = L-ornithine; SITE 17: note = Lysine is chemically modified through conjugation of the epsilon-amino group of the Lysine side chain with (gamma-Gl)

Experiments:
Test in all cases: cell-based or functional assay
[1] = target: hGLP-1R (Homo sapiens, UniProt P43220)
Chain of hGLP-1R (P43220 24-463): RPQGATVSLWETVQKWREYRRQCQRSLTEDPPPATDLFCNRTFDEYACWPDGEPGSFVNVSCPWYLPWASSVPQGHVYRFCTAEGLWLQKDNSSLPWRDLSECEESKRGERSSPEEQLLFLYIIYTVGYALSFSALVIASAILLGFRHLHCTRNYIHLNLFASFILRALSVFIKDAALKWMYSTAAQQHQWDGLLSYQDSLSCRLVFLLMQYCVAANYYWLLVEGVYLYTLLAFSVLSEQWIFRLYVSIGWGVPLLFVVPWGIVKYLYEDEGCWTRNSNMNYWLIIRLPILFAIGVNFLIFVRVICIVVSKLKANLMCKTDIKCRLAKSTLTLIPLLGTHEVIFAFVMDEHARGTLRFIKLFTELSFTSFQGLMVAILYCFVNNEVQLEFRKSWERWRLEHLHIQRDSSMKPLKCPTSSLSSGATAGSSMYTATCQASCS

[2] = target: human glucagon receptor (human) (UniProt P47871)
Chain of human glucagon receptor (human) (P47871 26-477): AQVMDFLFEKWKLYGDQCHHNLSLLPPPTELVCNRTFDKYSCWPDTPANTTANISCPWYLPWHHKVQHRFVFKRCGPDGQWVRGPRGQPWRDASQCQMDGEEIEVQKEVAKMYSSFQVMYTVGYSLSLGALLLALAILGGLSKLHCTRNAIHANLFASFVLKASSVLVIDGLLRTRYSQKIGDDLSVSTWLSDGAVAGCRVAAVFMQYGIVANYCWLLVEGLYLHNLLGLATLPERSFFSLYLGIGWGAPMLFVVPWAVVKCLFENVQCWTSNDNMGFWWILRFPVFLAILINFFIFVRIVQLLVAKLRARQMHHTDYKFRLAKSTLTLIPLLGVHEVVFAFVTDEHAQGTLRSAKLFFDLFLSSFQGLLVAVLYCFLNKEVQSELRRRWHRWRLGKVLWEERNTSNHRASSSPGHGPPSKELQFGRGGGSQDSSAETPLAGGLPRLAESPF

[3] = target: T1, human GIP receptor (human) (UniProt P48546)
T1 sequence (looked up): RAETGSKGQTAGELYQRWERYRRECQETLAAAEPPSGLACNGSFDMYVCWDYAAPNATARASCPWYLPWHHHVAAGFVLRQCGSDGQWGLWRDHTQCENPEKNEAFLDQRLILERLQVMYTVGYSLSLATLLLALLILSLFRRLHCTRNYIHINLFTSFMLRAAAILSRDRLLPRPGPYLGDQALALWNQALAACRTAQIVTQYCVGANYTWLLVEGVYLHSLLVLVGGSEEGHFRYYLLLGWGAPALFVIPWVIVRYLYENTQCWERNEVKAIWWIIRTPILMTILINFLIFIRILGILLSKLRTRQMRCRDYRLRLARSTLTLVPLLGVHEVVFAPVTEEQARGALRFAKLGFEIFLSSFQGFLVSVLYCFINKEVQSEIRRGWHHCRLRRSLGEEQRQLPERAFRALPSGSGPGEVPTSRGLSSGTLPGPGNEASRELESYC

Row | Binder | Relative cAMP EC50 [1] [nM] | cAMP Rel EC50, nM (in the presence of 1% HSA) [1] [nM] | Relative cAMP EC50 [2] [nM] | cAMP Rel EC50, nM (in the presence of 1% HSA) [2] [nM] | Relative cAMP EC50 [3] [nM] | cAMP Rel EC50, nM (in the presence of 1% HSA) [3] [nM] | cAMP Rel EC50, nM (1% HSA) [1] [nM] | cAMP Rel EC50, nM (1% HSA) [2] [nM] | cAMP Rel EC50, nM (1% HSA) [3] [nM]
1 | B1 | 3.92 | 836 | 14.1 | 2150 | 0.456 | 49.3 | – | – | –
2 | B2 | 1.09 | – | 7.47 | – | 0.14 | – | 126 | 1010 | 15.2
3 | B3 | 2.1 | – | 4.21 | – | 0.13 | – | 174 | 268 | 9.72
4 | B4 | – | – | – | – | – | – | 223 | 533 | 15.9
5 | B5 | – | – | – | – | – | – | 148 | 459 | 13.5
6 | B6 | 2.89 | – | 4.5 | – | 0.159 | – | 218 | 214 | 15.1
7 | B7 | 3.91 | – | 3.03 | – | 0.119 | – | 315 | 405 | 14.8
8 | B8 | 0.668 | – | 5.34 | – | 0.116 | – | 95.1 | 636 | 12
9 | B9 | – | – | – | – | – | – | 643 | 863 | 12.5
10 | B10 | – | – | – | – | – | – | 1880 | 527 | 27.8
11 | B11 | – | – | – | – | – | – | 395 | 1050 | 30.8
12 | B12 | – | – | – | – | – | – | 4810 | 1160 | 11.2
13 | B13 | – | – | – | – | – | – | 1210 | 1860 | 14.5
14 | B14 | 5.12 | – | 4.28 | – | 0.109 | – | 574 | 315 | 11.8
15 | B15 | – | – | – | – | – | – | 1950 | 371 | 15.9
16 | B16 | – | – | – | – | – | – | 1290 | 197 | 11.6
17 | B17 | – | – | – | – | – | – | 279 | 501 | 15.5
18 | B18 | – | – | – | – | – | – | 973 | 237 | 35.4
19 | B19 | – | – | – | – | – | – | 3020 | 2130 | 10.4
20 | B20 | – | – | – | – | – | – | 1660 | 295 | 6.12
21 | B21 | 1.48 | – | 9.46 | – | 0.152 | – | 171 | 1670 | 14.5
22 | B22 | – | – | – | – | – | – | 1470 | 794 | 6.78
